Consider 31 proteins from article PMC12861225.

B1: Tissue-nonspecific alkaline phosphatase (TNALP): N230Q/N303Q (protein)
parent chain: MISPFLVLAIGTCLTNSLVPEKEKDPKYWRDQAQETLKYALELQKLNTNVAKNVIMFLGDGMGVSTVTAARILKGQLHHNPGEETRLEMDKFPFVALSKTYNTNAQVPDSAGTATAYLCGVKANEGTVGVSAATERSRCNTTQGNEVTSILRWAKDAGKSVGIVTTTRVNHATPSAAYAHSADRDWYSDNEMPPEALSQGCKDIAYQLMHNIRDIDVIMGGGRKYMYPKNKTDVEYESDEKARGTRLDGLDLVDTWKSFKPRYKHSHFIWNRTELLTLDPHNVDYLLGLFEPGDMQYELNRNNVTDPSLSEMVVVAIQILRKNPKGFFLLVEGGRIDHGHHEGKAKQALHEAVEMDRAIGQAGSLTSSEDTLTVVTADHSHVFTFGGYTPRGNSIFGLAPMLSDTDKKPFTAILYGNGPGYKVVGGERENVSMVDYAHNNYQAQSAVPLRHETHGGEDVAVFSKGPMAHLLHGVHEQNYVPHVMAYAACIGANLGHCAPASSAGSLAAGPLLLALALYPLSVLF
B2: Tissue-nonspecific alkaline phosphatase (TNALP): N230Q (protein)
parent chain: B1 parent chain
B3: Tissue-nonspecific alkaline phosphatase (TNALP): N303Q/N430D (protein)
parent chain: B1 parent chain
B4: Tissue-nonspecific alkaline phosphatase (TNALP): N140Q (protein)
parent chain: B1 parent chain
B5: Tissue-nonspecific alkaline phosphatase (TNALP): N271Q/N303Q (protein)
parent chain: B1 parent chain
B6: Tissue-nonspecific alkaline phosphatase (TNALP): N140Q/N230Q (protein)
parent chain: B1 parent chain
B7: Tissue-nonspecific alkaline phosphatase (TNALP): N230Q/N430D (protein)
parent chain: B1 parent chain
B8: Tissue-nonspecific alkaline phosphatase (TNALP): N271Q/N430D (protein)
parent chain: B1 parent chain
B9: Tissue-nonspecific alkaline phosphatase (TNALP): N430D (protein)
parent chain: B1 parent chain
B10: Tissue-nonspecific alkaline phosphatase (TNALP): N303Q (protein)
parent chain: B1 parent chain
B11: Tissue-nonspecific alkaline phosphatase (TNALP): N140Q/N430D (protein)
parent chain: B1 parent chain
B12: Tissue-nonspecific alkaline phosphatase (TNALP): N271Q (protein)
parent chain: B1 parent chain
B13: Tissue-nonspecific alkaline phosphatase (TNALP): heterodimeric N140Q/N430D (protein)
parent chain: B1 parent chain
B14: Tissue-nonspecific alkaline phosphatase (TNALP): heterodimeric N271Q (protein)
parent chain: B1 parent chain
B15: Tissue-nonspecific alkaline phosphatase (TNALP): heterodimeric N230Q/N271Q (protein)
parent chain: B1 parent chain
B16: Tissue-nonspecific alkaline phosphatase (TNALP): heterodimeric N230Q (protein)
parent chain: B1 parent chain
B17: Tissue-nonspecific alkaline phosphatase (TNALP): heterodimeric N430D (protein)
parent chain: B1 parent chain
B18: Tissue-nonspecific alkaline phosphatase (TNALP): heterodimeric N230Q/N430D (protein)
parent chain: B1 parent chain
B19: Tissue-nonspecific alkaline phosphatase (TNALP): heterodimeric N140Q (protein)
parent chain: B1 parent chain
B20: Tissue-nonspecific alkaline phosphatase (TNALP): heterodimeric N271Q/N430D (protein)
parent chain: B1 parent chain
B21: Tissue-nonspecific alkaline phosphatase (TNALP): heterodimeric N140Q/N303Q (protein)
parent chain: B1 parent chain
B22: Tissue-nonspecific alkaline phosphatase (TNALP): heterodimeric N140Q/N230Q (protein)
parent chain: B1 parent chain
B23: Tissue-nonspecific alkaline phosphatase (TNALP): heterodimeric N303Q (protein)
parent chain: B1 parent chain
B24: Tissue-nonspecific alkaline phosphatase (TNALP): heterodimeric N140Q/N271Q (protein)
parent chain: B1 parent chain
B25: Tissue-nonspecific alkaline phosphatase (TNALP): heterodimeric N271Q/N303Q (protein)
parent chain: B1 parent chain
B26: Tissue-nonspecific alkaline phosphatase (TNALP): heterodimeric N230Q/N303Q (protein)
parent chain: B1 parent chain
B27: Tissue-nonspecific alkaline phosphatase (TNALP): heterodimeric N303Q/N430D (protein)
parent chain: B1 parent chain
B28: Tissue-nonspecific alkaline phosphatase (TNALP): N140Q/N303Q (protein)
parent chain: B1 parent chain
B29: Tissue-nonspecific alkaline phosphatase (TNALP): N230Q/N271Q/N430D (protein)
parent chain: B1 parent chain
B30: Tissue-nonspecific alkaline phosphatase (TNALP): N230Q/N271Q/N303Q (protein)
parent chain: B1 parent chain
B31: Tissue-nonspecific alkaline phosphatase (TNALP): N140Q/N230Q/N430D (protein)
parent chain: B1 parent chain

One series can be described thus: SYPRO Orange thermal shift, pooled purified protein. The note with it: glycan lost; control: wild type.
Regarding B1, the “stability_or_folding, Tm” value was “no change, 54.1 vs 54.5”.

Turning to B2, the “stability_or_folding, Tm” value is recorded as “no change, 54.5 vs 54.5”.

Take B3: the “stability_or_folding, Tm” value is “increases, 55.3, 70.1 vs 54.5”.

B4: the “stability_or_folding, Tm” value was “no change, 54.9 vs 54.5”.

Take B5: the “stability_or_folding, Tm” value is on record as “decreases, 52.9 vs 54.5”.

As to B6, the “stability_or_folding, Tm” value is “no change, 54.9 vs 54.5”.

As to B7, the “stability_or_folding, Tm” value was “increases, 55.7 vs 54.5”.

As for B8, the “stability_or_folding, Tm” value was “increases, 55.3, 69.7 vs 54.5”.

In the case of B9, the “stability_or_folding, Tm” value was “increases, 55.7 vs 54.5”.

As for B10, the “stability_or_folding, Tm” value is on record as “decreases, 53.7 vs 54.5”.

B11: the “stability_or_folding, Tm” value was “increases, 56.5 vs 54.5”.

With B12, the “stability_or_folding, Tm” value is on record as “no change, 54.5 vs 54.5”.

The next series in a line: pNPP activity; mutant:WT plasmid 1:1 (heterodimers not confirmed). The note with it: glycan lost; control: wild type plasmid only.
Consider B13, for which the “enzymatic_activity, percent_of_wt” value is listed as “decreases”.

Regarding B14, the “enzymatic_activity, percent_of_wt” value is given as “decreases”.

For the protein B15, the “enzymatic_activity, percent_of_wt” value is “decreases”.

Regarding B16, the “enzymatic_activity, percent_of_wt” value was “decreases”.

As to B17, the “enzymatic_activity, percent_of_wt” value was “decreases”.

With B18, the “enzymatic_activity, percent_of_wt” value is “no change”.

As for B19, the “enzymatic_activity, percent_of_wt” value was “decreases”.

For B20, the “enzymatic_activity, percent_of_wt” value was “decreases”.

B21: the “enzymatic_activity, percent_of_wt” value is recorded as “decreases”.

In the case of B22, the “enzymatic_activity, percent_of_wt” value is reported as “decreases”.

For the protein B23, the “enzymatic_activity, percent_of_wt” value is reported as “decreases”.

Take B24: the “enzymatic_activity, percent_of_wt” value is on record as “decreases”.

As to B25, the “enzymatic_activity, percent_of_wt” value is given as “decreases”.

As for B26, the “enzymatic_activity, percent_of_wt” value is on record as “decreases”.

Turning to B27, the “enzymatic_activity, percent_of_wt” value is on record as “decreases”.

Another series is described as follows: pNPP activity of supernatant, normalised to total protein; homodimeric double mutants. The note with it: glycan lost; control: wild type.
In the case of B1, the “enzymatic_activity, other: specific activity” value (“enzymatic_activity, other” for short) is “no change, 9.5 ± 6.5 vs 13.6 ± 6.6”.

Turning to B3, the “enzymatic_activity, other” value is “decreases, 4.7 ± 4 vs 13.6 ± 6.6”.

For B5, the “enzymatic_activity, other” value is given as “decreases, 3.9 ± 2.8 vs 13.6 ± 6.6”.

On to B6, for which the “enzymatic_activity, other” value is “decreases, 3.8 ± 3.9 vs 13.6 ± 6.6”.

For B7, the “enzymatic_activity, other” value was “no change, 9 ± 6 vs 13.6 ± 6.6”.

Turning to B8, the “enzymatic_activity, other” value is “decreases, 4.3 ± 3.4 vs 13.6 ± 6.6”.

Turning to B11, the “enzymatic_activity, other” value is on record as “decreases, 7 ± 4.3 vs 13.6 ± 6.6”.

With B28, the “enzymatic_activity, other” value is “decreases, 3.5 ± 2.7 vs 13.6 ± 6.6”.

The next series in a line: weak anion-exchange HPLC with activity-based detection. The note with it: glycan lost; control: wild type.
For the protein B1, the “other: HPLC isoform profile” value is on record as “no change”.

B2: the “other: HPLC isoform profile” value is “no change”.

As for B3, the “other: HPLC isoform profile” value was “changes”.

As for B4, the “other: HPLC isoform profile” value is reported as “no change”.

For B5, the “other: HPLC isoform profile” value was “changes”.

Take B7: the “other: HPLC isoform profile” value is on record as “changes”.

B8: the “other: HPLC isoform profile” value is on record as “changes”.

Consider B9, for which the “other: HPLC isoform profile” value is given as “no change”.

For the protein B10, the “other: HPLC isoform profile” value was “no change”.

As for B11, the “other: HPLC isoform profile” value is “changes”.

For the protein B28, the “other: HPLC isoform profile” value is “no change”.

For the protein B12, the “other: HPLC isoform profile” value was “no change”.

A further series can be described thus: pNPP activity of supernatant, normalised to total protein; homodimeric single mutants. The following applies: glycan lost; control: wild type.
Consider B2, for which the “enzymatic_activity, other” value is “no change”.

In the case of B4, the “enzymatic_activity, other” value was “no change”.

Regarding B9, the “enzymatic_activity, other” value is reported as “no change”.

For B10, the “enzymatic_activity, other” value is on record as “no change”.

A further series is described as follows: pNPP activity of supernatant; triple-site mutants. The note with it: glycan lost; control: wild type.
Consider B29, for which the enzymatic_activity result is “abolishes”.

With B30, the enzymatic_activity entry is reported as “abolishes”.

Regarding B31, the enzymatic_activity result is reported as “abolishes”.

Another series in a line: remaining pNPP activity after 56 °C; mutant:WT plasmid 1:1. The following applies: glycan lost; control: wild type.
B20: the stability_or_folding result is reported as “no change”.

For B25, the stability_or_folding entry is given as “no change”.

B27: the stability_or_folding entry is “no change”.

Another series is described as follows: anti-Flag capillary immunoblot of Flag-purified medium, pooled n=6. The note with it: glycan lost; control: wild type. In general terms: Immunoblotting shows a protein as a band on a membrane.
Regarding B1, the “expression_or_secretion, fold_change” value is given as “decreases, 0.4 vs 1.0”.

Take B2: the “expression_or_secretion, fold_change” value is reported as “decreases, 0.5 vs 1.0”.

As to B3, the “expression_or_secretion, fold_change” value is “decreases, 0.7 vs 1.0”.

As for B4, the “expression_or_secretion, fold_change” value is listed as “decreases, 0.4 vs 1.0”.

Turning to B5, the “expression_or_secretion, fold_change” value is “decreases, 0.4 vs 1.0”.

With B6, the “expression_or_secretion, fold_change” value was “decreases, 0.5 vs 1.0”.

For the protein B7, the “expression_or_secretion, fold_change” value is given as “decreases, 0.6 vs 1.0”.

As for B8, the “expression_or_secretion, fold_change” value is “decreases, 0.7 vs 1.0”.

With B9, the “expression_or_secretion, fold_change” value is “decreases, 0.5 vs 1.0”.

Turning to B10, the “expression_or_secretion, fold_change” value is listed as “decreases, 0.5 vs 1.0”.

As for B11, the “expression_or_secretion, fold_change” value is given as “decreases, 0.6 vs 1.0”.

Regarding B28, the “expression_or_secretion, fold_change” value is on record as “decreases, 0.4 vs 1.0”.

With B12, the “expression_or_secretion, fold_change” value is “decreases, 0.4 vs 1.0”.

The next series in a line: remaining pNPP activity after 15 min at 56 °C; homodimeric. The following applies: glycan lost; control: wild type.
With B3, the “stability_or_folding, other: remaining activity” value was “increases, 47 ± 13 vs 23 ± 4”.

B5: the “stability_or_folding, other: remaining activity” value is “decreases, 12 ± 1 vs 23 ± 4”.

Regarding B8, the “stability_or_folding, other: remaining activity” value is “increases, 63 ± 5 vs 23 ± 4”.
